Like-named read-outs stand apart in the source and are kept apart here.

Test [1] has as its target T1, C-terminal SH3 domain of the growth factor receptor-bound protein 2 (Grb2) (UniProt P62993 158-211).
Test [2] concerns the target T1, C-terminal SH3 domain of the growth …. This is another data set of the same source.
Test [3] shares this target. This is another data set of the same source.

T1 sequence (P62993 156-215): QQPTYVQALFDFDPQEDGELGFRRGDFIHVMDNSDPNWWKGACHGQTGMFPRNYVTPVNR

B1: Gab2 503-524 peptide, variant P519A (peptide)
peptide: SRGSEIQPPPVNRNLKADRKAK
Consider B1, for which, in test [1], the koff came to 250 s⁻¹.

B2: Gab2 503-524 peptide, variant P510A (peptide)
peptide: SRGSEIQAPPVNRNLKPDRKAK
The molecule B2 had a koff in test [2] of 100 s⁻¹.

B3: Gab2 503-524 peptide, variant P512A (peptide)
peptide: SRGSEIQPPAVNRNLKPDRKAK
The molecule B3 displayed a koff in test [3] of 90 s⁻¹.

Broadly, the koff is a measure of how fast the partners let go of each other. Low readings indicate a long-lived complex, high ones a short-lived complex.

For the origin of these results see paper PMC5669894 (2017).
